The text below walks through data of article PMC2674214 (PLoS ONE, 2009).

The experiment deals with rHA of clade 1 H5N1 virus A/Viet Nam/1203/04 (Influenza A virus A/Viet Nam/1203/2004 …, UniProt Q5EP31, strain). The experiment can be described thus: ELISA.

B1: AVFluIgG03 (antibody, V domains shown)
VH: LESGGGLVQPGGSLRVSCTNSGFTFSDYAMSWVRQAPGKGLEWVSAISGNGGSSTYYADSVKGRFTISRDNSKNTMYLQMNSLRAEDTAVYYCVRDDSYDGGGQYGLHNWFDSWGQGTLVTV
VL: ELTQPPSVSGAPGQRVTISCTGSSSNIGAGYDVHWYQQLPGTAPKLLIYGNSNRPSGVPDRFSGSKSGTSASLAITGLQAEDEADYYCQSYDSSLVVFGGGTKLTVL
notes: also called rhAb AVFluIgG03; AVFluIg03; source: SF9 cells, purified on a Protein A column
In the case of B1, the binding result is given as “no binding”.
